Measured values: patent publication US20190002533A1 (Novartis, published 2019)
Positions count from the first letter of the chain named.

B1: 2077-26-1 (antibody, V domains shown)
VH: EVQLQQSGPDLVKPGASMKLSCKASGYSFTGYTMNWVKQSHGKNLEWIGLFNPYNGGPSYNQKFKGKATLTVDKSSSTAYMELLSLTPEDSAVYYCARLRYYGIGDDFFDYWGQGTTLTVSS
VL: DIVMTQSHKFMSTSVGDRVSITCKASQDVGTAVAWYQEKPGQSPKLLIYWASTRHTGVPDRFTGSGSGTDFTLTISNVQSEDLAYYFCQQYSNYPYTFGGGTKLEIK
B2: 2077-28-2 (antibody, V domains shown)
VH: B1 VH with D10E, L20I, P58A, S59T, K63R, E82D, P88S, A97T, Y101K
VL: B1 VL with E38Q, Y85D, N93T, P95T
B3: P8D11 (antibody, human IgG1, lambda)
heavy: not shown
light: QSVLTQPPSVSVAPGKTARITCGGDNIGSRPVHWYQQKPGQAPILVVYDDSNRPSGIPERFSGSNSGNTATLTISRVEAGDEADYYCQVWSSSTDHPFGGGTKVTVLGQPKAAPSVTLFPPSSEELQANKATLVCLISDFYPGAVTVAWKADSSPVKAGVETTTPSKQSNNKYAASSYLSLTPEQWKSHRSYSCQVTHEGSTVEKTVAPTECS
B4: NEG447A (antibody, human IgG1, lambda, V domains shown)
VH: QVQLQESGPGLVKPSETLSLTCTVSGGSISRDYWSWVRQPPGAGLEWIGNIYYSGSTNYNPSLKSRVTISVATNKKQFSLKLTSVTAADTAVYYCARVPGCSSTSCIDGWFDPWGQGILVTVSS
VL: QSVLTQPPSVSAAPGQKVTISCSGSSSNIGNTYVSWYQQLPGTAPKLLIYDNNKRPSGIPDRFSGSKSGTSATLGITGLQTGDEADYYCGTWDSSLSAWVFGGGTRLTVLG

Tests used:
JCV VLPs = target: T1, JCV VLPs (JC virus (JCV), UniProt P03089 1-354); assay: ELISA on plate-coated JCV VLPs (OD 450 nm)
T1 construct: also called JC virus VLPs; JCV consensus

[1] = target: VP1 of the pooled BKV serotype I resistance-associated variant (RAV) virus with 20 amino acid changes (BK virus (BKV) serotype I); assay: cell-based or functional assay
[2] = target: VP1 on chimeric infectious BKV serotype II (BK virus (BKV) serotype II, UniProt P14996 1-362); assay: cell-based or functional assay

Binder	EC50 (read off the curve) (JCV VLPs)	also measured
B1	~0.07 nM	
B2	~0.08 nM	
B3		shift in EC50 of neutralisation against wild-type virus [1]: 3.9 fold
B4		EC90 of neutralisation, fold change [2]: ~8 fold
